Where no end group is shown, it is not given here. The star is where a group is joined. FITC = O=C1OC2(c3ccc(O)cc3Oc3cc(O)ccc32)c2ccc(NC(=S)*)cc21

Experiment [1] deals with T1, CNGB3-MYC/His fusion protein (human, UniProt Q9NQW8 1-809).
T1 construct: Full-length CNGB3 cDNA in pcDNA3.1/myc-His-B, expressed in HeLa and HEK293T cells; also called recombinant CNGB3; not shown: C-terminal myc-His tag from the pcDNA3.1/myc-His-B vector
T1 sequence: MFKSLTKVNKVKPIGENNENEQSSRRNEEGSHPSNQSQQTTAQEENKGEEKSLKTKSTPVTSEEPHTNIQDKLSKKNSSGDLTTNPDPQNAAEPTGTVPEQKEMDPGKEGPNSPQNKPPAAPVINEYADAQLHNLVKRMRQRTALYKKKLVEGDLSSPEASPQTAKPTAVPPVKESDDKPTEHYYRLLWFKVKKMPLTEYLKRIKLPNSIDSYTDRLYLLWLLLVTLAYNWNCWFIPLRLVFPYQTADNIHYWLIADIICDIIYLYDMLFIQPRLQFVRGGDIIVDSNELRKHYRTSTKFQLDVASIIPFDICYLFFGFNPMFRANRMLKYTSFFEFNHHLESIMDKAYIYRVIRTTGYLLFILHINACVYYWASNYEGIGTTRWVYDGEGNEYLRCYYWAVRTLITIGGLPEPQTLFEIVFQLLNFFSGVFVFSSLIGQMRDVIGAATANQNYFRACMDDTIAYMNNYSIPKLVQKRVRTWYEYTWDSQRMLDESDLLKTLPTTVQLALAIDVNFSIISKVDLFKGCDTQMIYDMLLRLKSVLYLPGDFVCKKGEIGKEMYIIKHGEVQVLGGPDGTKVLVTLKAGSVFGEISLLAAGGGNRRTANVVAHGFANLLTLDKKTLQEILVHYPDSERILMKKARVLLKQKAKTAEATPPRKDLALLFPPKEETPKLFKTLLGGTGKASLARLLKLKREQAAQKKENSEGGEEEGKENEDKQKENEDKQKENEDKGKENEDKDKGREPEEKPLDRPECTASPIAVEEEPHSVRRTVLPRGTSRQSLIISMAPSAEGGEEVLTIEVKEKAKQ
The experiment can be described thus: fluorescence microscopy of CNGB3-MYC expressing HEK293T cells, 37° C. for 30 min, Alexa 488-conjugated avidin. As for the experimental part: When dKLAK-z13 was added to culture medium of HEK293T cells transfected by expression vector for CNGB3-MYC, apoptosis was not induced, however. It was realized that this lack of effect could be due to the fact that receptor-bound dKLAK-z13 localizes to the luminal side of endosomes, a prediction supported by the endosome-like pattern of fluorescent z13. To release dKLAK-z13 from the endosomes to the cytoplasm, an endosome-escaping 18-mer peptide […] (SEQ ID NO:38; here abbreviated as HLAH) was devised by replacing lysines in KLAKLAK (SEQ ID NO:39) with histidines, to provide histidine-rich sequences capable of destabilizing endosome membranes at acidic pH (Midoux et al., 2002; Pichon et al., 2001). […] For this experiment, biotin-z13 was bound to CNGB3-MYC expressing HEK293T cells at 37° C. for 30 min with or without HLAH-z13. Cells were stained by Alexa 488-conjugated avidin followed by DAPI nuclear staining.

In experiment [2] the target is T1, CNGB3-MYC/His fusion protein. Briefly: fluorescence microscopy of HeLa cells transfected with CNGB3-MYC; FITC-z13 in the culture medium. How it is done:
When FITC-z13 was added to culture medium of CNGB3-MYC-expressing HeLa cells, FITC-z13 bound to sites marked by MYC-epitope expression. […] Antibody specificity was validated by immunostaining of CNGB3-Myc expressed in HeLa cells. This antibody strongly stained glandular epithelia of endometriosis in tissue sections.
CNGB3 cDNA was kindly provided by Dr. Hisao Ueyama, Department of Ophthalomology, Shiga University of Medical Science, Japan. cDNA encoding full-length CNGB3 was excised by HindIII and BsrGI and ligated into the HindIII and Asp718I sites of pcDNA3.1/myc-His-B vector (Invitrogen). HeLa cells were transfected with this vector, and expression of CNGB3-MYC/His fusion protein was determined by immunohistochemistry with an anti-MYC antibody and the anti-CNGB3 antibody (clone 3B2) described above. To test binding of z13 peptide to CNGB3, FITC-z13 was added (5 μg/ml) to the medium of HeLa cells transfected by the above-described vector and incubated at 37° C. for 15 min. Cells were washed with PBS, fixed with 4% PFA in PBS, and observed under a fluorescence microscope.

Consider VRRADNRPG (also: biotinylated (position not given here), also called biotin-z13) [biotinylated z13], for which, in experiment [1], the binding result is recorded as “binds”.

B1: FITC-z13 (peptide)
peptide: {FITC}-VRRADNRPG
notes: Synthetic fluorescence-tagged z13 peptide; also called fluorescent FITC-z13; z13 peptide with an N-terminal FITC-tag
As for B1, the binding result in experiment [2] was “binds”.

Source of the values: patent US20160145308A1 (SANFORD BURNHAM MEDICAL RESEARCH INSTITUTE, published 2016).
